We go through nine sequences from the supplement of paper PMC11246515.

± gives the standard deviation of the averaged measurements.

The data set can be described thus: total protein half-life in vivo (active degradation + dilution); higher = more stable protein.
Setting [1] is: wild type E. coli NCM3722, growth: C-lim chemostat, doubling time 12 h.
Where [2] appears, read: wild type E. coli NCM3722, growth: P-lim chemostat, doubling time 6 h.
[3] abbreviates: wild type E. coli NCM3722, growth: P-lim chemostat, doubling time 12 h.
Setting [4] is: E. coli NCM3722 delta-clpP delta-lon delta-hslV, growth: N-lim chemostat, doubling time 6 h.
Where [5] appears, read: E. coli NCM3722 delta-clpP, growth: N-lim chemostat, doubling time 6 h.
The mark [6] stands for this setting: E. coli NCM3722 delta-hslV, growth: N-lim chemostat, doubling time 6 h.
Where [7] appears, read: E. coli NCM3722 delta-lon, growth: N-lim chemostat, doubling time 6 h.
Where [8] appears, read: E. coli NCM3722 delta-smpB, growth: N-lim chemostat, doubling time 6 h.
Setting [9] is: wild type E. coli NCM3722, growth: C-lim chemostat, doubling time 3 h.
Where [10] appears, read: wild type E. coli NCM3722, growth: C-lim chemostat, doubling time 6 h.
Setting [11] is: wild type E. coli NCM3722, growth: N-lim chemostat, doubling time 6 h.
The mark [12] stands for this setting: wild type E. coli NCM3722, growth: N-lim chemostat, doubling time 12 h.

For the sequence “MIENRPWLTIFSHTMLILGIAVILFPLYVAFVAATLDKQAVYAAPMTLIPGTHLLENIHNIWVNGVGTNSAPFWRMLLNSFVMAFSITLGKITVSMLSAFAIVWFRFPLRNLFFWMIFITLMLPVEVRIFPTVEVIANLQMLDSYAGLTLPLMASATATFLFRQFFMTLPDELVEAARIDGASPMRFFCDIVFPLSKTNLAALFVITFIYGWNQYLWPLLIITDVDLGTTVAGIKGMIATGEGTTEWNSVMVAMLLTLIPPVVIVLVMQRAFVRGLVDSEK”, the “total protein half-life in vivo” value came to 14.5 h under setting [1], 6.34 h under setting [2] and 12.6 ± 2.1 h under setting [3].

For the sequence “MKYVFIEKHQAEFSIKAMCRVLRVARSGWYTWCQRRTRISTRQQFRQHCDSVVLAAFTRSKQRYGAPRLTDELRAQGYPFNVKTVAASLRRQGLRAKASRKFSPVSYRAHGLPVSENLLEQDFYASGPNQKWAGDITYLRTDEGWLYLAVVIDLWSRAVIGWSMSPRMTAQLACDALQMALWRRKRPRNVIVHTDRGGQYCSADYQAQLKRHNLRGSMSAKGCCYDNACVESFFHSLKVECIHGEHFISREIMRATVFNYIECDYNRWRRHSWCGGLSPEQFENKNLA [P0CF81]”, the “total protein half-life in vivo” value under setting [4] is 5.16 ± 0.69 h.

“MKKLRIGVVGLGGIAQKAWLPVLAAASDWTLQGAWSPTRAKALPICESWRIPYADSLSSLAASCDAVFVHSSTASHFDVVSTLLNAGVHVCVDKPLAENLRDAERLVELAARKKLTLMVGFNRRFAPLYGELKTQLATAASLRMDKHRSNSVGPHDLYFTLLDDYLHVVDTALWLSGGKASLDGGTLLTNDAGEMLFAEHHFSAGPLQITTCMHRRAGSQRETVQAVTDGALIDITDMREWREERGQGVVHKPIPGWQSTLEQRGFVGCARHFIECVQNQTVPQTAGEQAVLAQRIVDKIWRDAMSE”: the “total protein half-life in vivo” value under setting [4] came out at 5.47 ± 0.24 h; the “total protein half-life in vivo” value under setting [5] worked out at 5.38 ± 1.1 h; the “total protein half-life in vivo” value under setting [6] was determined as 5.7 ± 0.25 h; the “total protein half-life in vivo” value under setting [7] stood at 6.04 ± 0.96 h; the “total protein half-life in vivo” value under setting [8] amounted to 4.86 ± 0.11 h; the “total protein half-life in vivo” value under setting [9] came to 3.12 ± 0.51 h. The “total protein half-life in vivo” value is, setting by setting: under setting [10], 5.88 ± 0.12 h; under setting [1], 11 ± 0.34 h; under setting [11], 4.96 ± 0.26 h; under setting [12], 9.402 ± 0.04 h; under setting [2], 6.2 ± 0.17 h; under setting [3], 12 ± 0.19 h.

Regarding “MRLLNRLNQYQRLWQPSAGKPQTVTVSELAERCFCSERHVRTLLRQAQEAGWLEWQAQSGRGKRGQLRFLVTPESLRNAMMEQALETGKQQDVLELAQLAPGELRTLLQPFMGGQWQNDTPTLRIPYYRPLEPLQPGFLPGRAEQHLAGQIFSGLTRFDNNTQRPIGDLAHHWETSTDGLRWDFYLRSTLHWHNGDAVKASHLHQRLLMLLQLPALDQLFISVKRIEVTHPQCLTFFLHRPDYWLAHRLASYCSHLAHPQFPLIGTGPFRLTQFTAELVRLESHDYYHLRHPLLKAVEYWITPPLFEKDLGTSCRHPVQITIGKPEELQRVSQVSSGISLGFCYLTLRKSPRLSLWQARKVISIIHQSGLLQTLEVGENLITASHALLPGWTIPHWQVPDEVKLPKTLTLVYHLPIELHTMAERLQATLAAEGCELTIIFHNAKNWDDTTLQAHADLMMGDRLIGEAPEYTLEQWLRCDPLWPHVFDAPAYAHLQSTLDAVQIMPDEENRFNALKAVFSQLMTDATLTPLFNYHYRISAPPGVNGVRLTPRGWFEFTEAWLPAPSQ”, the “total protein half-life in vivo” value under setting [4] came out at 5.67 h, the “total protein half-life in vivo” value under setting [9] came out at 1.85 ± 0.39 h, the “total protein half-life in vivo” value under setting [10] turned out to be 3 ± 0.03 h and the “total protein half-life in vivo” value under setting [1] amounted to 4.716 ± 0.0097 h.

For the sequence “MGKSIVVVSAVNFTTGGPFTILKKFLAATNNKENVSFIALVHSAKELKESYPWVKFIEFPEVKGSWLKRLHFEYVVCKKLSKELNATHWICLHDITANVVTKKRYVYCHNPAPFYKGILFREILMEPSFFLFKMLYGLIYKINIKKNTAVFVQQFWMKEKFIKKYSINNIIVSRPEIKLSDKSQLTDDDSQFKNNPSELTIFYPAVPRVFKNYELIISAARKLKEQSNIKFLLTISGTENAYAKYIISLAEGLDNVHFLGYLDKEKIDHCYNISDIVCFPSRLETWGLPLSEAKERGKWVLASDFPFTRETLGSYEKKAFFDSNNDDMLVKLIIDFKKGNLKKDISDANFIYRNENVLVGFDELVNFITEEH”, the “total protein half-life in vivo” value under setting [4] was found to be 5.98 h; the “total protein half-life in vivo” value under setting [5] was greater than 8 h; the “total protein half-life in vivo” value under setting [6] is greater than 8 h; the “total protein half-life in vivo” value under setting [7] worked out at 7.3 ± 0.89 h; the “total protein half-life in vivo” value under setting [8] worked out at 5.6 ± 0.084 h; the “total protein half-life in vivo” value under setting [10] amounted to 5.53 h. In addition, the “total protein half-life in vivo” value under setting [1] turned out to be 10.5 h; the “total protein half-life in vivo” value under setting [11] amounted to 5.39 ± 0.26 h; the “total protein half-life in vivo” value under setting [12] was 12.4 ± 0.87 h; the “total protein half-life in vivo” value under setting [2] is 6.42 h; the “total protein half-life in vivo” value under setting [3] was 14.9 ± 1.6 h.

Turning to “MREAFICDGIRTPIGRYGGALSSVRADDLAAIPLRELLVRNPRLDAECIDDVILGCANQAGEDNRNVARMATLLAGLPQSVSGTTINRLCGSGLDALGFAARAIKAGDGDLLIAGGVESMSRAPFVMGKAASAFSRQAEMFDTTIGWRFVNPLMAQQFGTDSMPETAENVAELLKISREDQDSFALRSQQRTAKAQSSGILAEEIVPVVLKNKKGVVTEIQHDEHLRPETTLEQLRGLKAPFRANGVITAGNASGVNDGAAALIIASEQMAAAQGLTPRARIVAMATAGVEPRLMGLGPVPATRRVLERAGLSIHDMDVIELNEAFAAQALGVLRELGLPDDAPHVNPNGGAIALGHPLGMSGARLALAASHELHRRNGRYALCTMCIGVGQGIAMILERV [P0C7L2]”, the “total protein half-life in vivo” value is, setting by setting: under setting [4], 3.42 h; under setting [7], 2.17 h; under setting [9], 2.77 ± 0.17 h; under setting [10], 3.37 ± 0.079 h; under setting [1], 4.76 ± 0.58 h; under setting [2], 4.99 ± 1.1 h. Moreover, the “total protein half-life in vivo” value under setting [3] was 8.63 ± 0.14 h.

“MKQEVILVLDCGATNVRAIAVNRQGKIVARASTPNASDIAMENNTWHQWSLDAILQRFADCCRQINSELTECHIRGIAVTTFGVDGALVDKQGNLLYPIISWKCPRTAAVMDNIERLISAQRLQAISGVGAFSFNTLYKLVWLKENHPQLLERAHAWLFISSLINHRLTGEFTTDITMAGTSQMLDIQQRDFSPQILQATGIPRRLFPRLVEAGEQIGTLQNSAAAMLGLPVGIPVISAGHDTQFALFGAGAEQNEPVLSSGTWEILMVRSAQVDTSLLSQYAGSTCELDSQAGLYNPGMQWLASGVLEWVRKLFWTAETPWQMLIEEARLIAPGADGVKMQCDLLSCQNAGWQGVTLNTTRGHFYRAALEGLTAQLQRNLQMLEKIGHFKASELLLVGGGSRNTLWNQIKANMLDIPVKVLDDAETTVAGAALFGWYGVGEFNSPEEARAQIHYQYRYFYPQTEPEFIEEV”: the “total protein half-life in vivo” value is 5.11 h under setting [4]; 3.99 ± 0.14 h under setting [5]; 0.905 ± 0.18 h under setting [9]; 2.56 h under setting [10]; 1.49 h under setting [1].

“MSFSVQETLFSLLQHNAISGHENAVADVMLCEFRRQAKEVWRDRLGNVVARYGSDKPDALRLMIFAHMDEVGFMVRKIEPSGFLRFERVGGPAQVTMAGSIVTLTGDKGPVMGCIGIKSYHFAKGDERTQSPSVDKLWIDIGAKDKDDAIRMGIQVGTPVTLYNPPQLLANDLVCSKALDDRLGCTALLGVADAISTMELDIAVYLVASVQEEFNIRGIVPVLRRVKPDLAIGIDITPSCDTPDLHDYSEVRINQGVGITCLNYHGRGTLAGLITPPRLIRMLEQTALEHNIPVQREVAPGVITETGYIQVEQDGIPCASLSIPCRYTHSPAEVASLRDLTDCIRLLTALAGMSAAHFPVEPDSGTTQEAHPL”: the “total protein half-life in vivo” value runs as follows: under setting [4], greater than 8 h; under setting [9], 3.05 ± 0.28 h; under setting [10], 6.24 ± 0.29 h; under setting [1], 10.9 ± 0.36 h; under setting [3], 10.2 h.

For the sequence “MTKHARFFLLPSFILISAALIAGCNDKGEEKAHVGEPQVTVHIVKTAPLEVKTELPGRTNAYRIAEVRPQVSGIVLNRNFTEGSDVQAGQSLYQIDPATYQANYDSAKGELAKSEAAAAIAHLTVKRYVPLVGTKYISQQEYDQAIADARQADAAVIAAKATVESARINLAYTKVTAPISGRIGKSTVTEGALVTNGQTTELATVQQLDPIYVDVTQSSNDFMRLKQSVEQGNLHKENATSNVELVMENGQTYPLKGTLQFSDVTVDESTGSITLRAVFPNPQHTLLPGMFVRARIDEGVQPDAILIPQQGVSRTPRGDATVLIVNDKSQVEARPVVASQAIGDKWLISEGLKSGDQVIVSGLQKARPGEQVKATTDTPADTASK”, the “total protein half-life in vivo” value under setting [1] was found to be 13.2 h.
